Measured values taken from publication PMC6212441, “Direct visualization of DNA baton pass between replication factors bound to PCNA” (Scientific Reports, 2018).

Experiments:
[1] = target: T1, P. furiosus proliferating cell nuclear antigen (PCNA) (Pyrococcus furiosus), O73947; assay: negative-stain electron microscopy, single particle analysis; FEN (D175A), PCNA and double flap DNA (Substrate-A) mixed in 50 mM Tris-HCl pH 8.0, 50 mM NaCl, 37 °C 10 min; complex isolated on Superdex 200 without crosslinking; 2% uranyl acetate stain; map at 19 Å with crystal structures fitted; conditions: remark: other sources report otherwise
T1 chain: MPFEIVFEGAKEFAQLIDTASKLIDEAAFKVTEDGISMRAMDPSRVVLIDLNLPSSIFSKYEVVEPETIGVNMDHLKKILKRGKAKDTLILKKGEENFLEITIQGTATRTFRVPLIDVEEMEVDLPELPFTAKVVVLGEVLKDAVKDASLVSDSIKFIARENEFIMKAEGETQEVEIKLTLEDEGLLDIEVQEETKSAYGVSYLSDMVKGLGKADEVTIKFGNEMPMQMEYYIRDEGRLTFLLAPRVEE

[2] = target: T2, P. furiosus DNA ligase (Lig) (Pyrococcus furiosus, UniProt P56709 1-561); assay: negative-stain electron microscopy, single particle analysis; wild type FEN, Lig, PCNA and nonligatable nicked DNA (Substrate-B) mixed in 20 mM MES pH 6.5, 50 mM NaCl, 0.1 mM ATP, 5 mM MgCl2, 50 °C 10 min; complex isolated on Superdex 200 without crosslinking; 2% uranyl acetate stain; two classes, maps at 16 Å and 20 Å with crystal structures fitted; conditions: both partners purified
T2 construct: DNA ligase (Lig) of Pyrococcus furiosus, with DBD, AdD and OBD domains and the PIP-box motif 103-QKSFF-107
T2 sequence: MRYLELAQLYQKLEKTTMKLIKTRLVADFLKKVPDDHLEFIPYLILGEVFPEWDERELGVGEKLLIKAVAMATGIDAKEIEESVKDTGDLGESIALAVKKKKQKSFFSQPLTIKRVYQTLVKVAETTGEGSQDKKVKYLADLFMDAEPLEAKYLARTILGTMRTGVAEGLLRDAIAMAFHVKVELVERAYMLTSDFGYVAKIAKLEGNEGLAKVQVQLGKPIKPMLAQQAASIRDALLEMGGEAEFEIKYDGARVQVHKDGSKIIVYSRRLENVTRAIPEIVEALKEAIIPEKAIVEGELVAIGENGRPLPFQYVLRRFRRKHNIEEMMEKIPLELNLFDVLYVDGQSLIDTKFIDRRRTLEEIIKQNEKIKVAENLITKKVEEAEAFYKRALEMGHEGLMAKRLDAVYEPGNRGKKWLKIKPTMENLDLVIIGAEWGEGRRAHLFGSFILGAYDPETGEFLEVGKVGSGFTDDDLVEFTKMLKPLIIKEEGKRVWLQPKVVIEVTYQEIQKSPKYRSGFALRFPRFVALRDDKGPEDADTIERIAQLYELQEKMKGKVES

B1: P. furiosus proliferating cell nuclear antigen (PCNA) (natural protein, Pyrococcus furiosus)
chain: MPFEIVFEGAKEFAQLIDTASKLIDEAAFKVTEDGISMRAMDPSRVVLIDLNLPSSIFSKYEVVEPETIGVNMDHLKKILKRGKAKDTLILKKGEENFLEITIQGTATRTFRVPLIDVEEMEVDLPELPFTAKVVVLGEVLKDAVKDASLVSDSIKFIARENEFIMKAEGETQEVEIKLTLEDEGLLDIEVQEETKSAYGVSYLSDMVKGLGKADEVTIKFGNEMPMQMEYYIRDEGRLTFLLAPRVEE
notes: proliferating cell nuclear antigen (PCNA) of Pyrococcus furiosus, forms a homotrimeric ring; also called PCNA clamp; PCNA ring
What does the source list for B1?
stoichiometry N [1]: 3; binding result [2]: binds
